This assay concerns the target GFP-tagged GluR1 (ΔL2–3) (UniProt P19490). Description: co-IP.

Among the data in paper PMC2745981 are interaction, percent of control (wild-type GluR1) values, retold here.

UniProt P19490, sequence (P19490 19-907, stated change not applied): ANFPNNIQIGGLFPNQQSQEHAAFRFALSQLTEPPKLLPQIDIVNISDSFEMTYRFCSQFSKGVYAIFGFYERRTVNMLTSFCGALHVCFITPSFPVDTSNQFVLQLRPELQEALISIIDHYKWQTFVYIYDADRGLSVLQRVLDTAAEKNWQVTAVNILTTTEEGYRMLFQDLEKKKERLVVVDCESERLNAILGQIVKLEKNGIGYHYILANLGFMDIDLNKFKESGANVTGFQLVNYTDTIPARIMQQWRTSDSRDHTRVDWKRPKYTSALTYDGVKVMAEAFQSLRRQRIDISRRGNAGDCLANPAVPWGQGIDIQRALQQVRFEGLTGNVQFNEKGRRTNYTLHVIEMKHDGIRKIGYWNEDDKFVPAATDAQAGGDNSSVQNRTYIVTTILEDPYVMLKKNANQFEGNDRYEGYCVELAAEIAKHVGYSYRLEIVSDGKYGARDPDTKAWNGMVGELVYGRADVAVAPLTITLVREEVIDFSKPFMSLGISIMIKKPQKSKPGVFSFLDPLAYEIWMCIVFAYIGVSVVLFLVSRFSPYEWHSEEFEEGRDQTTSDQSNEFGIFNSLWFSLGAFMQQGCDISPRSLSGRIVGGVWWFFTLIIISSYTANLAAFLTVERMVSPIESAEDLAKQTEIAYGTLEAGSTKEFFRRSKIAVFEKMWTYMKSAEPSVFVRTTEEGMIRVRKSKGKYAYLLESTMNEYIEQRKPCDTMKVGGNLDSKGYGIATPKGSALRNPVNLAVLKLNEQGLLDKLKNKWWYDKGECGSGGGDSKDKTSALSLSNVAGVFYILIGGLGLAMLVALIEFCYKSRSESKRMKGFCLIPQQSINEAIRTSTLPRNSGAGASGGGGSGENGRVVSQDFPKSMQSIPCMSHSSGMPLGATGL

In the case of “HA-tagged p62 (from UniProt Q13501 1-440) (natural protein)”, the interaction, percent of control (wild-type GluR1) was 78 % of control.
